Test results taken from publication doi:10.1101/2021.05.06.443019.

Biological target: ovine rBAT (purified with b^0,+AT) (ovine)
Assay: cryo-EM structure

- stoichiometry N: 2
Substance: ovine rBAT (purified with b^0,+AT) (from UniProt A0ACI6R3A5 1-685) (natural protein)
